US20170369592A1, “NOVEL ANTI-FIBROBLAST ACTIVATION PROTEIN (FAP) ANTIBODIES AND USES DERIVED THEREOF” (Mabimmune Diagnostics AG, priority 2015, published 2017)

How the values were obtained:
FAP = biological target: T1, FAP (Homo sapiens, UniProt Q12884); experiment: Binding specificity ELISA versus CD26 and unrelated human antigens; details: detection antibody at 20, 4 and 0.8 nM
T1 sequence (Q12884 1-760): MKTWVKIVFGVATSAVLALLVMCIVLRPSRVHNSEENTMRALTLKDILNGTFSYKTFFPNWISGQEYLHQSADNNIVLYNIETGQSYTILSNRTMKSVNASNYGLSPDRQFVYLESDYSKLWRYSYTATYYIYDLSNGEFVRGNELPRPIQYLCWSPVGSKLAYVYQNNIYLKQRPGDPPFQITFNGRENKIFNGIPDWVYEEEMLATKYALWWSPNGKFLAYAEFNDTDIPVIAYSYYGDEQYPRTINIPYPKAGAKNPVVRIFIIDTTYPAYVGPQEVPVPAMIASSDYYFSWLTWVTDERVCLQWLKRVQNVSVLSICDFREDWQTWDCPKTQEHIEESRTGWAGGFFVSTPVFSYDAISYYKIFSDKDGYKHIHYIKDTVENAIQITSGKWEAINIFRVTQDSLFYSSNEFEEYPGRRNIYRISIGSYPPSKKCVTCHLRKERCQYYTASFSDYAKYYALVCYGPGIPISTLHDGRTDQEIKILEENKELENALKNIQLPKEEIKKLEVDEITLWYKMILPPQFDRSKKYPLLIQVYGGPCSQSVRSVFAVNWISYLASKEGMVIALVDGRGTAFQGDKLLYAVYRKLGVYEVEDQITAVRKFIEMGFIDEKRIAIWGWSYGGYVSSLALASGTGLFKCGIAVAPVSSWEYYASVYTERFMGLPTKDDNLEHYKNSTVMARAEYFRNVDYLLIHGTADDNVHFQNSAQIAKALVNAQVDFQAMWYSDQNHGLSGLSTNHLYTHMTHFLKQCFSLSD
Procedure: A mouse anti-6×-histidine tag antibody (Clonetech) was coated at a concentration of 3 μg/ml in PBS to a 96 well ELISA plate, the plates were then blocked with 5% BSA in PBS, and enzymatically active recombinant human FAP with an N-terminus 6× histidine tag was added to the plates to be captured. The binding efficiency of NI-206.82C2 (at 20 nM, 4 nM, and 0.8 nM) against sFAP was then tested by 1 hour incubation, followed by washing with PBS and detection with an HRP-labelled goat anti-human antibody (Jackson Immunoresearch) using a colormetric assay. To assess NI-206.82C2 binding other targets, recombinant human CD26 and fourteen other unrelated recombinant human proteins (A-N) were individually added to a 96-well ELISA plate in triplicate, and the binding efficacy of NI-206.82C2 was evaluated. (FIG. 7A)

transmembrane human FAP = biological target: T2, transmembrane human FAP (Homo sapiens, UniProt Q12884); experiment: Flow cytometry on FAP-HEK293 cells at pH 7.4, 6.8, 6.4; assay type: cell-based; details: pH 6.4 and 6.8 vs pH 7.4, FAP-HEK293 cells, Cy5 labelled
T2 construct: retrovirus encoding full length human FAP cDNA; host or cells: HEK293 (FAP-HEK293, G418 selected)
T2 sequence (Q12884 1-760): T1 sequence (Q12884 1-760)
Procedure: To evaluate the binding of NI-206.82C2 to transmembrane human FAP, an FAP expressing HEK293 cell line was received from the National Institutes of Health, Bethesda, Md. The generation of this FAP expressing HEK293 cells is described in: J. Exp. Med. 2013 Vol. 210 No. 6 1125-1135.
HEK293 cells were transduced with retrovirus encoding full length human FAP cDNA. Cloning was performed using Fast Cloning Pack and FastDigest restriction enzymes (both from Fermentas). Transient retroviral supernatants were generated by transfecting 293GP cells with the FAP plasmid using Lipofectamine 2000 (Invitrogen). Retroviral supernatants were collected at 48 h after transfection and centrifuged onto Retronectin-coated (10 μg/ml; Takara), non-tissue culture-treated 6-well plates at 2,000 G for 2 h at 32° C. These retroviral supernatants where then used to transduce HEK293 cells overnight. Transduced FAP-HEK293 cells were selected with 1 mg/ml G418 (CellGro). […]
To analyze antibody binding, fluorescent activated flow cytometry was performed using a BD Fortesa device for forward scatter, side scatter, and the mean fluorescent intensity (MFI) of the Cy5 channel was recorded using a […] laser excitation and 600/20 filter. Viable cells were gated by forward and side scatter, and singlets/doublet exclusion, and the MFI for Cy5 was quantified using FlowJo software Version 10.1.

4T1 breast tumor = experiment: In-vivo fluorescence imaging in 4T1 breast tumor bearing Balb/c mice; details: fluorescently labeled antibody, tumor mouse model
Procedure: These antibodies are designated as A680-82C2 (Alexa 680 labelled 82C2) and A680-43A11 (Alexa 680 labelled 43A11).
A murine cancer model was generated by the injection of 100′000 4T1 cultured breast tumor cells orthotopically into the 2nd left breast of Balb/c immunocompetent mice and allowed to grow for 7 days. Prior to in vivo imaging, the animals were shaved and de-epilated to remove fur for minimal absorbance and scattering of the incident optical light. In-vivo imaging was performed with the Maestro 500 imaging system (Cambridge Research Inc, Woburn, USA). For A680-82C2 detection, a band pass filter from 615 nm-665 nm and a highpass filter over 700 nm were used for excitation and emission light respectively, and fluorescence was detected by a CCD camera (cooled to 11° C.). A series of images were acquired at different wavelengths and then subjected to spectral unmixing (deconvolution of collected optical spectra; this enabled the unmixing of the Alexa680 fluorescence pattern from tissue auto-fluorescence and other spectral contributions).
The 4T1-breast tumor bearing Balb/c mice (3-4 in each group) were then injected on day 7 after innoculation with 2 mg/kg of A680-82C2 or A680-43A11. Whole mice images were acquired at the following timepoints: before antibody injection, immediately after antibody injection, 6h, 24h, 48h, and 6d after antibody injection.

B1: NI-206.82C2: recombinant human memory B cell-derived monoclonal anti-FAP IgG1 antibody, variable regions in FIG. 1A, FAP inhibitory (antibody, V domains shown)
VH: QVQLQQSGPGLVKPSQTLSLTCAISGDSVSSNSVTWNWIRQSPSRGLEWLGRTYYRSKWYNDYAVSVKGRITINPDTSKNQFYLQLKSVTPEDAAVYYCARDSSILYGDYWGQGTLVTVSS
VL: QAVLTQPSSLSASPGASASLTCTLPSGINVGTYRIFWFQQKPGSPPQYLLSYKSDSDNHQGSGVPSRFSGSKDASANAGILLISGLQSEDEADYYCMIWHSSAWVFGGGTKLTVL
colorimetric signal against recombinant human FAP versus CD26 and unrelated human antigens (FAP): significantly greater
binding to transmembrane FAP, pH dependence (Δ MFI) (transmembrane human FAP): higher affinity at lower pHs
antibody concentration after 6 d post antibody injection (4T1 breast tumor): almost zero
